Legend:
[1] = format: physicochemical; conditions: pH 7.4
Description: To a pre-saturated mixture of 500 µL 1-octanol and 500 µL of phosphate-buffered saline (PBS) (pH 7.4), 10 µL of 1 µM of the ^177Lu-labeled conjugates were added. The solution was vortexed for 1 h to reach the equilibrium and then centrifuged (3000 rpm) for 10 min. From each phase, 100 µL of the aliquot was removed and measured in a γ-counter. Each measurement was repeated three times. Care was taken to avoid cross-contamination between the phases. The partition coefficient was calculated as the average of the logarithmic values (n = 3) of the ratio between the radioactivity in the organic and the PBS phase.

in vivo [2] = conditions: mouse, 100 pmol, total radioactivity
Description: The mice were sacrificed 4 h p.i. and accumulation of the radiotracer in the tumors and in all organs of interest was quantified in a γ-counter.

in vivo [3] = conditions: female, mouse, total radioactivity
Description: The Veterinary Office (Department of Health) of the Cantonal Basel-Stadt approved the animal experiments (approval no. 2799) in accordance with the Swiss regulations for animal treatment. Female athymic Nude-Foxn1^nu/Foxn1^+ mice (Envigo, The Netherlands), 4–6 weeks old, were injected subcutaneously with 10^7 HEK-SST2 cells in the right shoulder and 10^7 HEK-SST5 cells in the left shoulder, freshly suspended in 100 μL sterile phosphate-buffered saline. The tumors were allowed to grow for 2–3 weeks.
At the selected time points, the mice were sacrificed and the organs of interest were collected, rinsed, blotted, weighed and counted in a γ-counter. The results are expressed as a percentage of injected activity per gram (%IA/g) obtained by extrapolation from counts of an aliquot taken from the injected solution as a standard.
At the preselected time points, the mice were sacrificed and the organs of interest were collected, rinsed, blotted, weighed and counted in a γ-counter. The results are expressed as a percentage of injected activity per gram (%IA/g) obtained by extrapolation from counts of an aliquot taken from the injected solution as a standard.

[4] = athymic Nude-Foxn1^nu/Foxn1^+, 100 pmol, Pancreas uptake
[5] = athymic Nude-Foxn1^nu/Foxn1^+, 100 pmol, Spleen uptake
[6] = athymic Nude-Foxn1^nu/Foxn1^+, 100 pmol, Stomach uptake
[7] = athymic Nude-Foxn1nu/Foxn1+, 10 pmol, Adrenal uptake
[8] = athymic Nude-Foxn1nu/Foxn1+, 10 pmol, Blood uptake
[9] = athymic Nude-Foxn1nu/Foxn1+, 10 pmol, Bone uptake
[10] = athymic Nude-Foxn1nu/Foxn1+, 10 pmol, Heart uptake
[11] = athymic Nude-Foxn1nu/Foxn1+, 10 pmol, Intestine uptake
[12] = athymic Nude-Foxn1nu/Foxn1+, 10 pmol, Kidney uptake
[13] = athymic Nude-Foxn1nu/Foxn1+, 10 pmol, Liver uptake
[14] = athymic Nude-Foxn1nu/Foxn1+, 10 pmol, Lung uptake
[15] = athymic Nude-Foxn1nu/Foxn1+, 10 pmol, Muscle uptake
[16] = athymic Nude-Foxn1nu/Foxn1+, 10 pmol, Pancreas uptake
[17] = athymic Nude-Foxn1nu/Foxn1+, 10 pmol, SST2-tumor uptake
[18] = athymic Nude-Foxn1nu/Foxn1+, 10 pmol, SST5-tumor uptake
[19] = athymic Nude-Foxn1nu/Foxn1+, 10 pmol, Spleen uptake
[20] = athymic Nude-Foxn1nu/Foxn1+, 10 pmol, Stomach uptake
[21] = athymic Nude-Foxn1nu/Foxn1+, 100 pmol, Adrenal uptake
[22] = athymic Nude-Foxn1nu/Foxn1+, 100 pmol, Blood uptake
[23] = athymic Nude-Foxn1nu/Foxn1+, 100 pmol, Bone (Femur) uptake
[24] = athymic Nude-Foxn1nu/Foxn1+, 100 pmol, Femur uptake
[25] = athymic Nude-Foxn1nu/Foxn1+, 100 pmol, Heart uptake
[26] = athymic Nude-Foxn1nu/Foxn1+, 100 pmol, Intestine uptake
[27] = athymic Nude-Foxn1nu/Foxn1+, 100 pmol, Kidney uptake
[28] = athymic Nude-Foxn1nu/Foxn1+, 100 pmol, Liver uptake
[29] = athymic Nude-Foxn1nu/Foxn1+, 100 pmol, Lung uptake
[30] = athymic Nude-Foxn1nu/Foxn1+, 100 pmol, Muscle uptake
[31] = athymic Nude-Foxn1nu/Foxn1+, 100 pmol, Pancreas uptake
[32] = athymic Nude-Foxn1nu/Foxn1+, 100 pmol, SST2-tumor uptake
[33] = athymic Nude-Foxn1nu/Foxn1+, 100 pmol, SST5-tumor uptake
[34] = athymic Nude-Foxn1nu/Foxn1+, 100 pmol, Spleen uptake
[35] = athymic Nude-Foxn1nu/Foxn1+, 100 pmol, Stomach uptake

CC(C)[C@@H]1NC(=O)[C@H](CCCCN)NC(=O)[C@@H](Cc2c[nH]c3ccccc23)NC(=O)[C@H](Cc2ccc(O)c(I)c2)NC(=O)[C@@H](NC(=O)[C@@H](Cc2ccc(N)c(I)c2)NC(=O)CN2CCN(CC(=O)O)CCN(CC(=O)O)CCN(CC(=O)O)CC2)CSSC[C@@H](C(=O)N[C@H](C(N)=O)[C@@H](C)O)NC1=O [[^177Lu]Lu-DOTA-ST8950, metal not drawn]
logD [1]: -1.2 ± 0.1
tissue uptake at 4 h (in vivo [2]; Adrenal uptake): 5.45 ± 2.26 %ID/g
tissue uptake at 4 h (in vivo [2]; Blood uptake): 0.1 ± 0.02 %ID/g
tissue uptake at 4 h (in vivo [2]; Femur uptake): 0.56 ± 0.24 %ID/g
tissue uptake at 4 h (in vivo [2]; Heart uptake): 0.18 ± 0.03 %ID/g
tissue uptake at 4 h (in vivo [2]; Intestine uptake): 1.35 ± 0.14 %ID/g
tissue uptake at 4 h (in vivo [2]; Kidney uptake): 8.96 ± 1.39 %ID/g
tissue uptake at 4 h (in vivo [2]; Liver uptake): 2.28 ± 0.2 %ID/g
tissue uptake at 4 h (in vivo [2]; Lung uptake): 2.43 ± 1.21 %ID/g
tissue uptake at 4 h (in vivo [2]; Muscle uptake): 0.15 ± 0.02 %ID/g
tissue uptake at 4 h (in vivo [2]; SST(-)-tumor uptake): 0.7 ± 0.08 %ID/g
tissue uptake at 4 h (in vivo [2]; Spleen uptake): 0.84 ± 0.06 %ID/g
tissue uptake at 4 h (in vivo [2]; Stomach uptake): 4.89 ± 0.94 %ID/g
tissue uptake at 168 h (in vivo [3]; athymic Nude-Foxn1^nu/Foxn1^+, 100 pmol, Liver uptake): 0.54 ± 0.09 %ID/g
tissue uptake at 24 h (in vivo [3]; [4]): 1.68 ± 0.27 %ID/g
tissue uptake at 72 h (in vivo [3]; [4]): 0.72 ± 0.14 %ID/g
tissue uptake at 168 h (in vivo [3]; [4]): 0.37 ± 0.05 %ID/g
tissue uptake at 24 h (in vivo [3]; [5]): 0.36 ± 0.24 %ID/g
tissue uptake at 72 h (in vivo [3]; [5]): 0.38 ± 0.12 %ID/g
tissue uptake at 168 h (in vivo [3]; [5]): 0.27 ± 0.05 %ID/g
tissue uptake at 24 h (in vivo [3]; [6]): 2.61 ± 0.44 %ID/g
tissue uptake at 72 h (in vivo [3]; [6]): 1.66 ± 0.49 %ID/g
tissue uptake at 168 h (in vivo [3]; [6]): 0.99 ± 0.04 %ID/g
tissue uptake at 1 h (in vivo [3]; [7]): 6.01 ± 1.15 %ID/g
tissue uptake at 4 h (in vivo [3]; [7]): 5.37 ± 1.17 %ID/g
tissue uptake at 1 h (in vivo [3]; [8]): 1.3 ± 0.24 %ID/g
tissue uptake at 4 h (in vivo [3]; [8]): 0.15 ± 0.02 %ID/g
tissue uptake at 1 h (in vivo [3]; [9]): 1.35 ± 0.25 %ID/g
tissue uptake at 4 h (in vivo [3]; [9]): 1.12 ± 0.38 %ID/g
tissue uptake at 1 h (in vivo [3]; [10]): 0.84 ± 0.18 %ID/g
tissue uptake at 4 h (in vivo [3]; [10]): 0.2 ± 0.04 %ID/g
tissue uptake at 1 h (in vivo [3]; [11]): 3.08 ± 0.38 %ID/g
tissue uptake at 4 h (in vivo [3]; [11]): 2.29 ± 0.42 %ID/g
tissue uptake at 1 h (in vivo [3]; [12]): 11.7 ± 1.79 %ID/g
tissue uptake at 4 h (in vivo [3]; [12]): 10.8 ± 1.27 %ID/g
tissue uptake at 1 h (in vivo [3]; [13]): 2.73 ± 0.59 %ID/g
tissue uptake at 4 h (in vivo [3]; [13]): 2.2 ± 0.27 %ID/g
tissue uptake at 1 h (in vivo [3]; [14]): 7.12 ± 2.59 %ID/g
tissue uptake at 4 h (in vivo [3]; [14]): 3.81 ± 0.98 %ID/g
tissue uptake at 1 h (in vivo [3]; [15]): 0.4 ± 0.07 %ID/g
tissue uptake at 4 h (in vivo [3]; [15]): 0.13 ± 0.02 %ID/g
tissue uptake at 1 h (in vivo [3]; [16]): 5.99 ± 1.75 %ID/g
tissue uptake at 4 h (in vivo [3]; [16]): 3.21 ± 0.5 %ID/g
tissue uptake at 1 h (in vivo [3]; [17]): 12.1 ± 3.94 %ID/g
tissue uptake at 4 h (in vivo [3]; [17]): 10.3 ± 2.78 %ID/g
tissue uptake at 1 h (in vivo [3]; [18]): 1.94 ± 0.46 %ID/g
tissue uptake at 4 h (in vivo [3]; [18]): 1.52 ± 0.75 %ID/g
tissue uptake at 1 h (in vivo [3]; [19]): 1.82 ± 0.26 %ID/g
tissue uptake at 4 h (in vivo [3]; [19]): 0.96 ± 0.18 %ID/g
tissue uptake at 1 h (in vivo [3]; [20]): 9.68 ± 2.34 %ID/g
tissue uptake at 4 h (in vivo [3]; [20]): 6.03 ± 1.28 %ID/g
tissue uptake at 1 h (in vivo [3]; [21]): 4.23 ± 0.68 %ID/g
tissue uptake at 4 h (in vivo [3]; [21]): 5.21 ± 1.92 %ID/g
tissue uptake at 24 h (in vivo [3]; [21]): 3.81 ± 1.08 %ID/g
tissue uptake at 72 h (in vivo [3]; [21]): 2.86 ± 1.3 %ID/g
tissue uptake at 168 h (in vivo [3]; [21]): 1.84 ± 0.49 %ID/g
tissue uptake at 1 h (in vivo [3]; [22]): 0.96 ± 0.23 %ID/g
tissue uptake at 4 h (in vivo [3]; [22]): 0.09 ± 0.03 %ID/g
tissue uptake at 24 h (in vivo [3]; [22]): 0.02 %ID/g
tissue uptake at 72 h (in vivo [3]; [22]): 0.01 %ID/g
tissue uptake at 1 h (in vivo [3]; [23]): 0.74 ± 0.11 %ID/g
tissue uptake at 4 h (in vivo [3]; [23]): 0.49 ± 0.11 %ID/g
tissue uptake at 24 h (in vivo [3]; [24]): 0.3 ± 0.05 %ID/g
tissue uptake at 72 h (in vivo [3]; [24]): 0.19 ± 0.05 %ID/g
tissue uptake at 168 h (in vivo [3]; [24]): 0.11 ± 0.01 %ID/g
tissue uptake at 1 h (in vivo [3]; [25]): 0.69 ± 0.09 %ID/g
tissue uptake at 4 h (in vivo [3]; [25]): 0.17 ± 0.03 %ID/g
tissue uptake at 24 h (in vivo [3]; [25]): 0.08 ± 0.01 %ID/g
tissue uptake at 72 h (in vivo [3]; [25]): 0.06 ± 0.02 %ID/g
tissue uptake at 168 h (in vivo [3]; [25]): 0.04 ± 0.01 %ID/g
tissue uptake at 1 h (in vivo [3]; [26]): 1.95 ± 0.65 %ID/g
tissue uptake at 4 h (in vivo [3]; [26]): 1.14 ± 0.42 %ID/g
tissue uptake at 24 h (in vivo [3]; [26]): 0.51 ± 0.09 %ID/g
tissue uptake at 72 h (in vivo [3]; [26]): 0.28 ± 0.06 %ID/g
tissue uptake at 168 h (in vivo [3]; [26]): 0.12 ± 0.02 %ID/g
tissue uptake at 1 h (in vivo [3]; [27]): ~10 %ID/g
tissue uptake at 4 h (in vivo [3]; [27]): ~10 %ID/g
tissue uptake at 24 h (in vivo [3]; [27]): 5.99 ± 0.41 %ID/g
tissue uptake at 72 h (in vivo [3]; [27]): 3.2 ± 0.84 %ID/g
tissue uptake at 168 h (in vivo [3]; [27]): 1.42 ± 0.38 %ID/g
tissue uptake at 1 h (in vivo [3]; [28]): 2.6 ± 0.42 %ID/g
tissue uptake at 4 h (in vivo [3]; [28]): 2.19 ± 0.48 %ID/g
tissue uptake at 24 h (in vivo [3]; [28]): 1.23 ± 0.16 %ID/g
tissue uptake at 72 h (in vivo [3]; [28]): 0.85 ± 0.21 %ID/g
tissue uptake at 1 h (in vivo [3]; [29]): 3.9 ± 0.84 %ID/g
tissue uptake at 4 h (in vivo [3]; [29]): 1.69 ± 0.4 %ID/g
tissue uptake at 24 h (in vivo [3]; [29]): 1.16 ± 0.1 %ID/g
tissue uptake at 72 h (in vivo [3]; [29]): 0.46 ± 0.08 %ID/g
tissue uptake at 168 h (in vivo [3]; [29]): 0.23 ± 0.09 %ID/g
tissue uptake at 1 h (in vivo [3]; [30]): 0.3 ± 0.07 %ID/g
tissue uptake at 4 h (in vivo [3]; [30]): 0.1 ± 0.02 %ID/g
tissue uptake at 24 h (in vivo [3]; [30]): 0.06 %ID/g
tissue uptake at 72 h (in vivo [3]; [30]): 0.04 ± 0.01 %ID/g
tissue uptake at 168 h (in vivo [3]; [30]): 0.01 %ID/g
tissue uptake at 1 h (in vivo [3]; [31]): 6.36 ± 1.39 %ID/g
tissue uptake at 4 h (in vivo [3]; [31]): 4.38 ± 1.02 %ID/g
tissue uptake at 1 h (in vivo [3]; [32]): 14.2 ± 1.78 %ID/g
tissue uptake at 4 h (in vivo [3]; [32]): 15.5 ± 3.63 %ID/g
tissue uptake at 24 h (in vivo [3]; [32]): 9.32 ± 2.02 %ID/g
tissue uptake at 72 h (in vivo [3]; [32]): 4.22 ± 1.43 %ID/g
tissue uptake at 168 h (in vivo [3]; [32]): 0.79 ± 0.13 %ID/g
tissue uptake at 1 h (in vivo [3]; [33]): 1.78 ± 0.35 %ID/g
tissue uptake at 4 h (in vivo [3]; [33]): 1.87 ± 0.49 %ID/g
tissue uptake at 24 h (in vivo [3]; [33]): 0.88 ± 0.16 %ID/g
tissue uptake at 72 h (in vivo [3]; [33]): 0.35 ± 0.08 %ID/g
tissue uptake at 168 h (in vivo [3]; [33]): 0.08 ± 0.01 %ID/g
tissue uptake at 1 h (in vivo [3]; [34]): 1.29 ± 0.19 %ID/g
tissue uptake at 4 h (in vivo [3]; [34]): 0.68 ± 0.11 %ID/g
tissue uptake at 1 h (in vivo [3]; [35]): 5.63 ± 0.79 %ID/g
tissue uptake at 4 h (in vivo [3]; [35]): 4.94 ± 0.9 %ID/g
